The values that follow come from publication PMC2939310 (Biochemistry, 2010).

This data set deals with the molecule itself. Nature of the data set: SEC. On the technique in general: Size exclusion chromatography separates by hydrodynamic size, large species first.

B1: DesVII-C-His6/DesVIII-N-Stag heterodimer (complex, Streptomyces venezuelae)
chain 1: MRVLLTSFAHHTHYYGLVPLAWALLAAGHEVRVASQPALTDTITGSGLAAVPVGTDHLIHEYRVRMAGEPRPNHPAIAFDEARPEPLDWDHALGIEAILAPYFYLLANNDSMVDDLVDFARSWQPDLVLWEPTTYAGAVAAQVTGAAHARVLWGPDVMGSARRKFVALRDRQPPEHREDPTAEWLTWTLDRYGASFEEELLTGQFTIDPTPPSLRLDTGLPTVGMRYVPYNGTSVVPDWLSEPPARPRVCLTLGVSAREVLGGDGVSQGDILEALADLDIELVATLDASQRAEIRNYPKHTRFTDFVPMHALLPSCSAIIHHGGAGTYATAVINAVPQVMLAELWDAPVKARAVAEQGAGFFLPPAELTPQAVRDAVVRILDDPSVATAAHRLREETFGDPTPAGIVPELERLAAQHRRPPADARH
chain 2: MTDDLTGALTQPPLGRTVRAVADRELGTHLLETRGIHWIHAANGDPYATVLRGQADDPYPAYERVRARGALSFSPTGSWVTADHALAASILCSTDFGVSGADGVPVPQQVLSYGEGCPLEREQVLPAAGDVPEGGQRAVVEGIHRETLEGLAPDPSASYAFELLGGFVRPAVTAAAAAVLGVPADRRADFADLLERLRPLSDSLLAPQSLRTVRAADGALAELTALLADSDDSPGALLSALGVTAAVQLTGNAVLALLAHPEQWRELCDRPGLAAAAVEETLRYDPPVQLDARVVRGETELAGRRLPAGAHVVVLTAATGRDPEVFTDPERFDLARPDAAAHLALHPAGPYGPVASLVRLQAEVALRTLAGRFPGLRQAGDVLRPRRAPVGRGPLSVPVSSS
With B1, the “stoichiometry N” value was 3 heterodimers in the complex.
